Measured values as given in article PMC7060279, “CCN1 is an opsonin for bacterial clearance and a direct activator of Toll-like receptor signaling” (Nature Communications, 2020).

Legend:
[1] = biological target: T1, human recombinant TLR2 protein (human, UniProt O60603 21-588); assay: SPR; Biacore T-200; TLR2, TLR4 and integrin αvβ3 immobilised on a CM5 chip by amine coupling; CCN1 as analyte at 25 µl per min, 25 °C, phosphate buffer with 350 mM NaCl, 0.5 mM CaCl2, 0.5 mM MgCl2, 10 µg per ml BSA; global fit to 1:1 Langmuir model, KD = kd/ka; details: both partners purified
T1 construct: Toll-like receptor 2, human, recombinant protein from R&D systems; also called hTLR2; source: bought: R&D systems
T1 sequence (O60603 21-588): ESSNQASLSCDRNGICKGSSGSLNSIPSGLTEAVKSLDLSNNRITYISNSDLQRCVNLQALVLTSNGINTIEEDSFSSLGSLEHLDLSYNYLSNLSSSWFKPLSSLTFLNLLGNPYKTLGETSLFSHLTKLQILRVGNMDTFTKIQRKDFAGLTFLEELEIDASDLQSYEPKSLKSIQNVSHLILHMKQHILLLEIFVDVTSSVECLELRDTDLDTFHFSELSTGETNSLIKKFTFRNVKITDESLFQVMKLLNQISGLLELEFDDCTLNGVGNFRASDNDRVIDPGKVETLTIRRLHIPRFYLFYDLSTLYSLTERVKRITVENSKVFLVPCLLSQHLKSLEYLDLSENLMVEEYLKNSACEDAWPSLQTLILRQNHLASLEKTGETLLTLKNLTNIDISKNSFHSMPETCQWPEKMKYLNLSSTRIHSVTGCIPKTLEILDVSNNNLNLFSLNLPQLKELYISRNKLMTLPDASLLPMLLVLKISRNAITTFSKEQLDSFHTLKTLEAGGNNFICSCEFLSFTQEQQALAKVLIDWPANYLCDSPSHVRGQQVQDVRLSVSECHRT

[2] = biological target: T2, human recombinant TLR4 protein (without MD2) (human, UniProt O00206 24-631); assay: as above; details: both partners purified
T2 construct: also called hTLR4; source: bought: R&D systems
T2 sequence (O00206 24-631): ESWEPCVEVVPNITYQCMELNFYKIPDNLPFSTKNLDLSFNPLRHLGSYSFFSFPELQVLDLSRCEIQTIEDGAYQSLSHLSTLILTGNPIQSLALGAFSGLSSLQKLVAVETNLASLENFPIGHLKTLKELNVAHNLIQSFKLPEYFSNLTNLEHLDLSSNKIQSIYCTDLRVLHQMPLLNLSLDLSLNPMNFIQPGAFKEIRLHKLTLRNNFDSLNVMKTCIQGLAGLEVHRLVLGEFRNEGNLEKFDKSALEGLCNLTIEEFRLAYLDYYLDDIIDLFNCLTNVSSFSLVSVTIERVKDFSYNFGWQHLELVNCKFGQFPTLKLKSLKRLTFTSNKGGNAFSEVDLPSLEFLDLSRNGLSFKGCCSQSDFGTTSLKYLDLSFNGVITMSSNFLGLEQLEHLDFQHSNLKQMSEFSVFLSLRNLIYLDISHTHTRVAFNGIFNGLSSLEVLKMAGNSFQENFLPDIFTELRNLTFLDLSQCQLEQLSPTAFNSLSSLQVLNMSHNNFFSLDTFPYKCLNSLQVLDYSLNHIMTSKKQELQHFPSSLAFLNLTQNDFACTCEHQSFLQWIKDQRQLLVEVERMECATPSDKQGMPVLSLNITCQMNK

B1: CCN1-WT (recombinant matricellular protein CCN1) (natural protein, UniProt P18406 25-379, looked up)
chain: TCPAACHCPLEAPKCAPGVGLVRDGCGCCKVCAKQLNEDCSKTQPCDHTKGLECNFGASSTALKGICRAQSEGRPCEYNSRIYQNGESFQPNCKHQCTCIDGAVGCIPLCPQELSLPNLGCPNPRLVKVSGQCCEEWVCDEDSIKDSLDDQDDLLGLDASEVELTRNNELIAIGKGSSLKRLPVFGTEPRVLFNPLHAHGQKCIVQTTSWSQCSKSCGTGISTRVTNDNPECRLVKETRICEVRPCGQPVYSSLKKGKKCSKTKKSPEPVRFTYAGCSSVKKYRPKYCGSCVDGRCCTPLQTRTVKMRFRCEDGEMFSKNVMMIQSCKCNYNCPHPNEASFRLYSLFNDIHKFRD
notes: CCN1 (CYR61), 40 kDa matricellular protein with IGFBP, vWC, TSR and CT domains; also called CYR61; Cyr61
Kd [1]: 227 nM | Kd [2]: 291 nM
